Patent US11939397B2, “ENTPD2 antibodies, combination therapies, and methods of using the antibodies and combination therapies” (Novartis AG, priority 2018, dated 2024)

Assays:
B16LM3 tumor = assay: Syngeneic B16LM3 tumor model, survival; type: in vivo, C57BL/6 mice; conditions: mAb13 15 mg/kg in combination with anti-PD-1 Ab 10 mg/kg i.p., days 1, 5, 8, 12, 15; relative to No Treatment, Isotype Control or anti-PD-1 Ab
Procedure: B16LM3 model was established in female C57BL/6 mice by subcutaneous injection of 0.5×10^6 cells into the right flank of each mouse. The day after implant mice were randomized into treatment groups (n=10 per group). Mice received treatments of either anti-mouse ENTPD2 mAb13 or a non-specific mIgG2a isotype control (clone MOPC-173, BioLegend, San Diego, CA) at a final dose 15 mg/kg on Day 1, 5, 8, 12, 15.
Anti-PD-1 Ab (clone RMP1-14 Bio X Cell, West Lebanon, NH) or non-specific rIgG2a isotype control (clone RTK2758, BioLegend, San Diego, CA) were delivered i.p. at a final dose of 10 mg/kg on days 1, 5, 8, 12, 15. All doses were adjusted to individual mouse body weights.

B16F10 tumor = assay: Syngeneic B16F10 tumor model, tumor growth and tumor T cell influx; type: in vivo, C57BL/6 mice
Procedure: B16F10 model was established in female C57BL/6 mice by subcutaneous injection of 0.5×10^6 cells into the right flank of each mouse. On day 7 once tumors reached approximately 30 mm^3, mice were randomized according to tumor volume into treatment groups (n=10 per group). Mice received treatment of either anti-mouse ENTPD2 mAb13 at a final dose 15 mg/kg, anti-PD-1 Ab (clone RMP1-14 Bio X Cell, West Lebanon, NH) i.p. at a final dose of 10 mg/kg or the combination of both treatments on days 1, 5, and 8. All doses were adjusted to individual mouse body weights.
In order to understand the impact of treatments on the tumor microenvironment, mice were euthanized on day 8 and tumors were dissociated in HyClone RPMI1640 media (GE Healthcare, Pittsburgh, PA) using gentleMacs C-tubes (Miltenyi Biotec, Auburn, CA) on the gentleMacs Octo Dissociator (Miltenyi Biotec, Auburn, CA). Approximately 2×10^6 dissociated tumor cells were blocked with rat anti-mouse CD16/CD32 Ab (Biolegend, San Diego, CA) to reduce non-specific FcyRIII/II binding and subsequently stained with the following cocktail of Abs: rat anti-mouse CD45-BUV395 (clone 30-F11) (BD Biosciences, San Jose, CA), rat anti-mouse CD8a-BUV737 (clone 53-6.7) (BD Biosciences, San Jose, CA), rat anti-mouse CD4-BV510 (clone RM4-5) (BD Bioscience, San Jose CA), anti-mouse CD69-PercPCy5.5 (clone H1-2F3) (Biolegend, San Diego, CA) and rat anti-mouse CD25-eFluor450 (clone eBio3C7) (eBioscience, San Diego, CA) at the manufacturers' recommended dilutions. All incubations and washes were performed in FACS Buffer composed of 1× HyClone Phosphate Buffered Saline (GE Healthcare, Pittsburgh, PA), 1% HyClone Fetal Bovine Serum (GE Healthcare, Pittsburgh, PA), 2 mM EDTA (ThermoFisher, Waltham MA). After staining with the cell surface antigen antibody cocktail, dissociated tumor cells were washed in FACS buffer, fixed and permeabilized using the eBioscience Foxp3/Transcription Factor Staining Buffer Kit (ThermoFisher, Waltham MA) to allow for intracellular staining with the mouse anti-mouse FOXP3-eFluor660 (clone 150D/E4) (eBioscience, San Diego, CA).

[1] = mAb13 and anti-PD-1 Ab combination, day 8

B1: mAb13: anti-mouse ENTPD2 monoclonal antibody, VH SEQ ID NO: 191, VL SEQ ID NO: 202 (antibody, V domains shown)
VH: QVQLVQSGAELKQPGQSVKISCKASGYTFTHYGMNWVKQAPGQGLKWMGWINTDTGNPTYADDFKGRFVFSLDTSVSTAYLQISNLKNEDTATYYCVRYGTLYSGYGFFFDSWGQGTLVTVSS
VL: DIMMTQSPSSLSVSAGEKATITCKSSQSLFNSNTNKNYLNWYLQKPGQSPKLLFYYASTRHTGVPDRFIGSGSGTDFTLTITSVQDEDLADYYCQQWYSYPWTFGPGTKLEIK
B1 was tested, and the mouse survival (B16LM3 tumor) was “significantly extended mouse survival”, the “tumor growth relative to No Treatment control, combination” value (B16F10 tumor; mAb13 15 mg/kg in combination with anti-PD-1 Ab 10 mg/kg, days 1, 5, 8) was “significant reduction in tumor growth” and the “anti-tumor efficacy, treatment alone” value (B16F10 tumor; mAb13 15 mg/kg or anti-PD-1 Ab 10 mg/kg i.p. alone, days 1, 5, 8) was “No significant anti-tumor efficacy”. For the same molecule, the “activated CD4 T-helper cells (CD45+ CD8− CD4+ FOXP3− CD69+ CD25+) in tumor, increase vs No Treatment” value (B16F10 tumor; [1]) was 7.0 fold and the “activated CD8 T cells (CD45+ CD4− CD8+ CD69+ CD25+) in tumor, change vs No Treatment” value (B16F10 tumor; [1]) was 5.8 fold.
